Numbering of substitutions follows the chain as printed. Numbers in names are those of the source.
T1: PUF4 RNA-binding domain (Saccharomyces cerevisiae, UniProt P25339 537-888)
T1 sequence: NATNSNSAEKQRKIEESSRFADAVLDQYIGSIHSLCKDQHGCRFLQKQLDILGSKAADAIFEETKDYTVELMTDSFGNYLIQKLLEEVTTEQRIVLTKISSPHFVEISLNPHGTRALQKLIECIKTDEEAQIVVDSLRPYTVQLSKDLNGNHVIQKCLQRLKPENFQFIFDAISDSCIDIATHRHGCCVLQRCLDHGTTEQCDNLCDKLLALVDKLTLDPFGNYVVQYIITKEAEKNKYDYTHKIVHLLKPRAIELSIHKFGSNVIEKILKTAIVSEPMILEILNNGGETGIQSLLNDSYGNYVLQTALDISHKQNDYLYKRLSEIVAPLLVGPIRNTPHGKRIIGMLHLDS

B1: Ic_S2_P5E.1_K5.1_C5.1_H5.1_A5.1_[T5G]_F5.1_[T8A]_[T9C]_[A10C]_T5.1 (ssRNA)
RNA: UUUGAUUAAUAUGAUAUCGUUCUUUCUUGUAGUAACCUUCUUUCUCGAUAUCAUAUUAAUCUUU
B2: Ic_S2_P5E.1_K5.1_C5.1_H5.1_A5.1_[T5G]_[T6C]_[A7C]_F5.1_[T8C]_[A10T]_T5.1 (ssRNA)
RNA: B1 RNA with U33C, A34C, A35C, C36U, C37U
B3: Ic_S2_P5E.1_K5.1_C5.1_H5.1_A5.1_[T5C]_[T6A]_[A7T]_F5.1_[T9A]_T5.1 (ssRNA)
RNA: B1 RNA with G32C, U33A, A34U, A35U, C36A, C37A
B4: Ic_S2_P5E.1_K5.1_C5.1_H5.1_A5.1_[T5C]_[T6G]_[A7C]_F5.1_[T8G]_[T9C]_[A10C]_T5.1 (ssRNA)
RNA: B1 RNA with G32C, U33G, A34C, A35G
B5: Ic_S2_P5E.1_K5.1_C5.1_H5.1_A5.1_[T6A]_[A7G]_F5.1_[T9A]_[A10C]_T5.1 (ssRNA)
RNA: B1 RNA with G32U, U33A, A34G, A35U, C36A
B6: Ic_S2_P5E.1_K5.1_C5.1_H5.1_A5.1_[T5C]_[T6C]_[A7T]_F5.1_[T8C]_[T9C]_T5.1 (ssRNA)
RNA: B1 RNA with G32C, U33C, A34U, A35C, C37A
B7: Ic_S2_P5E.1_K5.1_C5.1_H5.1_A5.1_[T5A]_[T6A]_F5.1_[A10T]_T5.1 (ssRNA)
RNA: B1 RNA with G32A, U33A, A35U, C36U, C37U
B8: Ic_S2_P5E.1_K5.1_C5.1_H5.1_A5.1_[T5A]_[T6C]_[A7G]_F5.1_[T9A]_[A10G]_T5.1 (ssRNA)
RNA: B1 RNA with G32A, U33C, A34G, A35U, C36A, C37G
B9: Ic_S2_P5E.1_K5.1_C5.1_H5.1_A5.1_[T5C]_[T6G]_[A7T]_F5.1_[T8C]_[T9G]_[A10T]_T5.1 (ssRNA)
RNA: B1 RNA with G32C, U33G, A34U, A35C, C36G, C37U
B10: Ic_S2_P5E.1_K5.1_C5.1_H5.1_A5.1_[T5C]_[T6A]_[A7C]_F5.1_[T9G]_[A10G]_T5.1 (ssRNA)
RNA: B1 RNA with G32C, U33A, A34C, A35U, C36G, C37G
B11: Ic_S2_P5E.1_K5.1_C5.1_H5.1_A5.1_[T6C]_F5.1_[T8A]_[A10T]_T5.1 (ssRNA)
RNA: B1 RNA with G32U, U33C, C36U, C37U
B12: Ic_S2_P5E.1_K5.1_C5.1_H5.1_A5.1_[T5G]_[T6C]_[A7T]_F5.1_[T8C]_[A10C]_T5.1 (ssRNA)
RNA: B1 RNA with U33C, A34U, A35C, C36U
B13: Ic_S2_P5E.1_K5.1_C5.1_H5.1_A5.1_[T5G]_[A7T]_F5.1_[T8C]_[T9C]_[A10T]_T5.1 (ssRNA)
RNA: B1 RNA with A34U, A35C, C37U
B14: Ic_S2_P5E.1_K5.1_C5.1_H5.1_A5.1_[T5C]_[A7G]_F5.1_[T8G]_[T9C]_[A10T]_T5.1 (ssRNA)
RNA: B1 RNA with G32C, A34G, A35G, C37U
B15: Ic_S2_P5E.1_K5.1_C5.1_H5.1_A5.1_[T5A]_[A7T]_F5.1_[T9A]_[A10G]_T5.1 (ssRNA)
RNA: B1 RNA with G32A, A34U, A35U, C36A, C37G
B16: Ic_S2_P5E.1_K5.1_C5.1_H5.1_A5.1_[T5G]_[T6C]_F5.1_[T8G]_[T9C]_[A10T]_T5.1 (ssRNA)
RNA: B1 RNA with U33C, A35G, C37U
B17: Ic_S2_P5E.1_K5.1_C5.1_H5.1_A5.1_[T5A]_[T6A]_[A7C]_F5.1_[T9G]_[A10G]_T5.1 (ssRNA)
RNA: B1 RNA with G32A, U33A, A34C, A35U, C36G, C37G
B18: Ic_S2_P5E.1_K5.1_C5.1_H5.1_A5.1_[T5C]_[T6A]_[A7T]_F5.1_[T8G]_T5.1 (ssRNA)
RNA: B1 RNA with G32C, U33A, A34U, A35G, C36U, C37A
B19: Ic_S2_P5E.1_K5.1_C5.1_H5.1_A5.1_[T5G]_[A7C]_F5.1_[T8A]_[T9C]_[A10T]_T5.1 (ssRNA)
RNA: B1 RNA with A34C, C37U
B20: Ic_S2_P5E.1_K5.1_C5.1_H5.1_A5.1_[T6G]_[A7T]_F5.1_[T8C]_[T9C]_[A10T]_T5.1 (ssRNA)
RNA: B1 RNA with G32U, U33G, A34U, A35C, C37U
B21: Ic_S2_P5E.1_K5.1_C5.1_H5.1_A5.1_[T5G]_[T6C]_F5.1_[T8C]_[A10G]_T5.1 (ssRNA)
RNA: B1 RNA with U33C, A35C, C36U, C37G
B22: Ic_S2_P5E.1_K5.1_C5.1_H5.1_A5.1_[T5C]_[A7C]_F5.1_[T9C]_[A10G]_T5.1 (ssRNA)
RNA: B1 RNA with G32C, A34C, A35U, C37G
B23: Ic_S2_P5E.1_K5.1_C5.1_H5.1_A5.1_[T5C]_F5.1_[T8C]_[T9G]_[A10C]_T5.1 (ssRNA)
RNA: B1 RNA with G32C, A35C, C36G

Target: T1, PUF4 RNA-binding domain
Assay: Mg; RNA-MaP; 20 mM Na-HEPES pH 7.4, 30 mM KOAc, 0.75 mM MgCl2, 0.1% Tween-20, 5% glycerol, 0.1 mg/mL BSA, 2 mM DTT; 25 C; 0.0125-409.6 nM protein
Settings: tags: N-His6-TEV cleaved; C-SNAP kept, Cy3B-labelled; label: tethered on chip by stalled RNA polymerase

| Binder | Kd [nM] |
| --- | --- |
| UCUCUUUCUAUAUUAUCUCUU (ssRNA) [Ia_S1_P4E.1_K4.1_C4.1_H4.1_[G2C]_A4.1_F4.1_T4.1] | 1380 |
| UCUCUUUAUAUAUAAUCUCUU (ssRNA) [Ib_S1_P4E.1_K4.1_C4.1_H4.1_[G2A]_A4.1_F4.1_[T8A]_T4.1] | 532 |
| UCUCUUUAUAUAUCAUCUCUU (ssRNA) [Ib_S1_P4E.1_K4.1_C4.1_H4.1_[G2A]_A4.1_F4.1_[T8C]_T4.1] | 1060 |
| UCUCUUUGCAUAUAAUCUCUU (ssRNA) [Ib_S1_P4E.1_K4.1_C4.1_H4.1_[T3C]_A4.1_F4.1_[T8A]_T4.1] | > 2300 |
| UCUCUUUUUAUAUAAUCUCUU (ssRNA) [Ib_S1_P4E.1_K4.1_C4.1_H4.1_[G2T]_A4.1_F4.1_[T8A]_T4.1] | 2120 |
| UCUCUUUGUGUAUCAUCUCUU (ssRNA) [Ib_S1_P4E.1_K4.1_C4.1_H4.1_[A4G]_A4.1_F4.1_[T8C]_T4.1] | 30.1 |
| B1 | 832 |
| B2 | 254 |
| B3 | 0.373 |
| B4 | 548 |
| B5 | 2.48 |
| B6 | 110 |
| B7 | 53.3 |
| B8 | 69.1 |
| B9 | 207 |
| B10 | 4.81 |
| B11 | 29.9 |
| B12 | 383 |
| B13 | 175 |
| B14 | 1660 |
| B15 | 5.21 |
| B16 | 905 |
| B17 | 26 |
| B18 | 2.58 |
| B19 | 722 |
| B20 | 21.6 |
| B21 | 794 |
| B22 | 152 |
| B23 | 641 |

Reference: article PMC9352680, “A comprehensive thermodynamic model for RNA binding by the Saccharomyces cerevisiae Pumilio protein PUF4”
